Residue numbers refer to the chain shown, from its start. In names and notes the source's numbering stands.
Experiments:
[1] = biological target: T1, FcγRIa extracellular domain with C-terminal His tag (human, UniProt P12314 16-292); experiment: SPR (Biacore)
T1 construct: also called FcgRIa
Text: (§1) IL6R-L was utilized as the common antibody L chain for all of the antibodies, the antibodies were expressed and purified according to the method of Reference Example 1, and binding to each of the FcγRs (FcγRIa, FcγRIIa H type, FcγRIIa R type, FcγRIIb, and FcγRIIIa V type) was comprehensively evaluated by the method of Reference Example 2.
(§2) Furthermore, KD(IIaR)/KD(IIb) and KD(IIaH)/KD(IIb) in the table respectively represent the value obtained by dividing the KD value of each variant for FcγRIIaR by the KD value of each variant for FcγRIIb, and the value obtained by dividing the KD value of each variant for FcγRIIaH by the KD value of each variant for FcγRIIb. KD(IIb) of the parent polypeptide/KD(IIb) of the altered polypeptide refers to the value obtained by dividing the KD value of the parent polypeptide for FcγRIIb by the KD value of each variant for FcγRIIb.

[2] = biological target: T2, FcγRIIb extracellular domain with C-terminal His tag (human, UniProt P31994 43-217); experiment: SPR (Biacore)
T2 construct: extracellular domain; also called FcgRIIb
T2 sequence (looked up): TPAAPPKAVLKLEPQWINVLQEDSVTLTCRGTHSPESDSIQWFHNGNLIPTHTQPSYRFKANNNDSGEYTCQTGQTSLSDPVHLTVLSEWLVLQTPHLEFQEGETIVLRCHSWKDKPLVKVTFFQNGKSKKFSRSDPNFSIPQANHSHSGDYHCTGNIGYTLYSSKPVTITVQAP
Text: as §1, §2

[3] = biological target: T3, FcγRIIIa type V extracellular domain, C-terminal His tag (human, UniProt P08637 17-208); experiment: SPR (Biacore), antibody captured on chip, FcγR extracellular domain as analyte; 1:1 kinetic fit or Equation 2 for weak binding
T3 construct: extracellular domain; also called FcgRIIIaV; FcγRIIIaV; not shown: His tag at the C terminus
Text: as §1, §2

[4] = biological target: T4, FcγRIIa type R extracellular domain with C-terminal His tag (human, UniProt P12318 34-217); experiment: SPR (Biacore)
T4 construct: extracellular domain; also called FcgRIIaR; FcγRIIaR
T4 sequence (looked up): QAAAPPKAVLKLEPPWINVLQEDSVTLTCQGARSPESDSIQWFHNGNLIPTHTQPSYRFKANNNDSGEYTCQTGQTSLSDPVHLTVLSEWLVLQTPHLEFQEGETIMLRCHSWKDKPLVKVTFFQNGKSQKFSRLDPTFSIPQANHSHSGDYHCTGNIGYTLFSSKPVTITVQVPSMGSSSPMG
Text: as §1, §2

[5] = biological target: T5, FcγRIIa type R extracellular domain, C-terminal His tag (human, UniProt P12318 34-217); experiment: SPR (Biacore), antibody captured, FcγR as analyte
T5 construct: extracellular domain; also called FcgRIIaR; FcγRIIaR; not shown: His tag at the C terminus
T5 sequence (looked up): T4 sequence (looked up)
Text: as §2
Kinetic analyses for calculating the KD values of each altered antibody for FcγR were performed according to the following method. First, antibodies of interest were captured onto the above-mentioned sensor chips, and an Fcγ receptor diluted with the running buffer was allowed to interact. The Biacore Evaluation Software was used to globally fit the measured results to the obtained sensorgram using the 1:1 Langmuir binding model, and the association rate constant ka (L/mol/s) and the dissociation rate constant kd (1/s) were calculated; and from those values the dissociation constants KD (mol/L) were calculated.

T1 sequence (P12314 16-292): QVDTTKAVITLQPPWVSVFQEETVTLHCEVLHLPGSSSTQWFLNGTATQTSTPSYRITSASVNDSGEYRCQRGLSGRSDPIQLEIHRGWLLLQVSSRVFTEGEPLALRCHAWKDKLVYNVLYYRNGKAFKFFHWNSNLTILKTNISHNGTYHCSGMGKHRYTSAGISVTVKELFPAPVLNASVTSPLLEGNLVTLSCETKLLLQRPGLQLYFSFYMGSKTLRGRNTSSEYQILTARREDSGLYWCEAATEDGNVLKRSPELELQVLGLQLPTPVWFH
T3 sequence (P08637 17-208 F176V): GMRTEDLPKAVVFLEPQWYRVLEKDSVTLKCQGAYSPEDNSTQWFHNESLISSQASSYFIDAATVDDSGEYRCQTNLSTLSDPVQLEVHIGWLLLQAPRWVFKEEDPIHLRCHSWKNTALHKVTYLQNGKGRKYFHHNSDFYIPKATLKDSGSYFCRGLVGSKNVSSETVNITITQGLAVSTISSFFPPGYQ

B1: IL6R-2B261/IL6R-L (antibody, human IgG1, kappa)
heavy: QVQLQESGPGLVKPSETLSLTCAVSGHSISHDHAWSWVRQPPGEGLEWIGFISYSGITNYNPSLQGRVTISRDNSKNTLYLQMNSLRAEDTAVYYCARSLARTTAMDYWGEGTLVTVSSASTKGPSVFPLAPSSKSTSGGTAALGCLVKDYFPEPVTVSWNSGALTSGVHTFPAVLQSSGLYSLSSVVTVPSSSLGTQTYICNVNHKPSNTKVDKKVEPKSCDKTHTCPPCPAPDLLGGDSVFLFPPKPKDTLMISRTPEVTCVVVDVSHEDPEVKFNWYVDGVEVHNAKTKPREEQDNSTYRVVSVLTVLHQDWLNGKEYKCKVSNKALPAPIEKTISKAKGQPREPQVYTLPPSRDELTKNQVSLTCLVKGFYPSDIAVEWESNGQPENNYKTTPPVLDSDGSFFLYSKLTVDKSRWQQGNVFSCSVMHEALHNHYTQESLSLSP
light: not shown
notes: E233D/P238D/Y296D (EU) in IL6R-B3; copies: 2 + 2
With B1 the Kd [1] was 9 nM and the Kd [2] was 1000 nM.

B2: IL6R-BP213/IL6R-L (antibody, human IgG1, kappa)
heavy: B1 heavy with H270D, P273G, D298Y, A332R
light: not shown
notes: Anti-human IL-6 receptor IgG1
B2 gave a Kd [3] of 63 µM.

B3: IL6R-BP208/IL6R-L (antibody, human IgG1, kappa)
heavy: B1 heavy with G239D, H270D, P273G, D298Y, A332R
light: not shown
notes: Anti-human IL-6 receptor IgG1
B3 was tested, and the Kd [3] was 53 µM.

B4: IL6R-BP197/IL6R-L (antibody, human IgG1, kappa)
heavy: B1 heavy with L236Y, G239D, H270D, P273G, K328D, A332K
light: not shown
notes: E233D/L234Y/G237D/P238D/H268D/P271G/Y296D/K326D/A330K (EU) in IL6R-B3; copies: 2 + 2
For B4, the Kd [4] was 980 nM.

B5: IL6R-BP182/IL6R-L (antibody, human IgG1, kappa)
heavy: B1 heavy with P273G, A332K
light: not shown
notes: E233D/P238D/P271G/Y296D/A330K (EU) in IL6R-B3; copies: 2 + 2
B5 showed a Kd [1] of 10 nM.

B6: IL6R-BP130/IL6R-L (antibody, human IgG1, kappa)
heavy: B1 heavy with D298Y, V325M, A332K
light: not shown
notes: E233D/P238D/V323M/A330K (EU) in IL6R-B3; copies: 2 + 2
B6 gave a Kd [2] of 300 nM.

B7: IL6R-BP118/IL6R-L (antibody, human IgG1, kappa)
heavy: B1 heavy with D235E, D298Y, K328S
light: not shown
notes: IgG1; P238D/K326S (EU numbering) introduced into IL6R-B3
In the case of B7, the Kd [5] is reported as 15 µM.

B8: IL6R-BP192/IL6R-L (antibody, human IgG1, kappa)
heavy: B1 heavy with H270D, P273G, A332K
light: not shown
notes: E233D/P238D/H268D/P271G/Y296D/A330K (EU) in IL6R-B3; copies: 2 + 2
Binder B8 has a Kd [1] of 6.6 nM and a Kd [4] of 2600 nM.

B9: IL6R-BP203/IL6R-L (antibody, human IgG1, kappa)
heavy: B1 heavy with D235E, G239D, P273G, D298Y, A332R
light: not shown
notes: Anti-human IL-6 receptor IgG1
Work on B9 yielded a Kd [3] of 72 µM.

B10: IL6R-BP206/IL6R-L (antibody, human IgG1, kappa)
heavy: B1 heavy with P273G, D298Y, A332R
light: not shown
notes: E233D/P238D/P271G/A330R (EU) in IL6R-B3; copies: 2 + 2
For B10, the Kd [2] was 200 nM.

B11: IL6R-BP078/IL6R-L (antibody, human IgG1, kappa)
heavy: B1 heavy with D235E, D298Y, A332M
light: not shown
notes: IgG1; P238D/A330M (EU numbering) introduced into IL6R-B3
B11 gave a Kd [5] of 15 µM.

B12: IL6R-BP203/IL6R-L (antibody, human IgG1, kappa)
heavy: B1 heavy with D235E, G239D, P273G, D298Y, A332R
light: not shown
notes: G237D/P238D/P271G/A330R (EU) in IL6R-B3; copies: 2 + 2
B12 was tested, and the Kd [1] was 180 nM and the Kd [4] was 990 nM.

B13: IL6R-BP191/IL6R-L (antibody, human IgG1, kappa)
heavy: B1 heavy with H270D, P273G, D298Y, K328A, A332K
light: not shown
notes: E233D/P238D/H268D/P271G/K326A/A330K (EU) in IL6R-B3; copies: 2 + 2
In the case of B13, the Kd [1] is reported as 4 nM and the Kd [4] is reported as 3000 nM.

B14: IL6R-BP201/IL6R-L (antibody, human IgG1, kappa)
heavy: B1 heavy with G239D, P273G, D298Y, A332R
light: not shown
notes: E233D/G237D/P238D/P271G/A330R (EU) in IL6R-B3; copies: 2 + 2
B14 gave a Kd [4] of 840 nM and a Kd [2] of 40 nM.

B15: IL6R-BP199/IL6R-L (antibody, human IgG1, kappa)
heavy: B1 heavy with D298Y, K328D, A332R
light: not shown
notes: Anti-human IL-6 receptor IgG1
Binder B15 has a Kd [3] of 61 µM.

B16: IL6R-BP100/IL6R-L (antibody, human IgG1, kappa)
heavy: B1 heavy with D235E, S269A, D298Y
light: not shown
notes: IgG1; P238D/S267A (EU numbering) introduced into IL6R-B3
Work on B16 yielded a Kd [5] of 7.8 µM.

B17: IL6R-BP207/IL6R-L (antibody, human IgG1, kappa)
heavy: B1 heavy with D298Y, A332R
light: not shown
notes: Anti-human IL-6 receptor IgG1
Binder B17 has a Kd [3] of 65 µM.

B18: IL6R-BP209/IL6R-L (antibody, human IgG1, kappa)
heavy: B1 heavy with D235E, G239D, H270D, P273G, D298Y, K328A, A332R
light: not shown
notes: Anti-human IL-6 receptor IgG1
B18 gave a Kd [3] of 41 µM.

B19: IL6R-BP103/IL6R-L (antibody, human IgG1, kappa)
heavy: B1 heavy with D235E, S269V, D298Y
light: not shown
notes: IgG1; P238D/S267V (EU numbering) introduced into IL6R-B3
Work on B19 yielded a Kd [5] of 11 µM.

B20: IL6R-BP189/IL6R-L (antibody, human IgG1, kappa)
heavy: B1 heavy with D235E, G239D, H270D, P273G, D298Y, K328A, A332K
light: not shown
notes: G237D/P238D/H268D/P271G/K326A/A330K (EU) in IL6R-B3; copies: 2 + 2
With B20 the Kd [1] was 42 nM.
